Target: serum immunoglobulin M (IgM), endogenous mouse (mouse (endogenous in C57BL/6 mice))
Assay: SEC + other: SDS-PAGE with western blot keeping disulfide bonds; peritoneal fluid and serum of healthy WT mice (0 h); 7.5% SDS-PAGE under conditions that prevent disruption of CD5L-IgM disulfide bonds, western blot for CD5L, densitometry of IgM-bound and free bands; WT serum also fractionated on Superose 12 10/300 GL in PBS and fractions blotted for CD5L and IgM

- percent of CD5L bound to IgM: > 90%
B1: CD5 antigen-like (CD5L), endogenous mouse protein (natural protein)
chain: ESPTKVQLVGGAHRCEGRVEVEHNGQWGTVCDDGWDRRDVAVVCRELNCGAVIQTPRGASYQPPASEQRVLIQGVDCNGTEDTLAQCELNYDVFDCSHEEDAGAQCENPDSDLLFIPEDVRLVDGPGHCQGRVEVLHQSQWSTVCKAGWNLQVSKVVCRQLGCGRALLTYGSCNKNTQGKGPIWMGKMSCSGQEANLRSCLLSRLENNCTHGEDTWMECEDPFELKLVGGDTPCSGRLEVLHKGSWGSVCDDNWGEKEDQVVCKQLGCGKSLHPSPKTRKIYGPGAGRIWLDDVNCSGKEQSLEFCRHRLWGYHDCTHKEDVEVICTDFDV
